Reference: PMC9083066

Test system: T1, FabT (Enterococcus faecalis), ORF:b010fabc
T1 sequence: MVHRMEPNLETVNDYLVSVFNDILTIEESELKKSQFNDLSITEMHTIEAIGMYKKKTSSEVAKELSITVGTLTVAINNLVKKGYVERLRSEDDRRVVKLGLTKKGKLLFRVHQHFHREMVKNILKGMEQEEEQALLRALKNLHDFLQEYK
Test: EMSA
Details: 10 nM DNA, 0.1 uM FabT, 0-10 uM acyl-ACP, 10 mM Tris-HCl pH 7.0, 50 mM NaCl, 1 mM EDTA, 1 mM DTT, 10% glycerol, room temperature, 30 min; 6% native PAGE

For “GTCAGGATCCGTCGACATCTGTATTCACCTCCACTGCTTTTGAAAAAAGGTTCTTTCTTTTACTAAAACGCTAAGATACATTGTACTCACAATTTGGGTATTTGTCCATCTTTTTTTCATTTGAGTAACAAACTGATGTCAAGACAATTGCAAATTACTGCAGAATTCTGAC (double strand) [E. faecalis acpB promoter]”, the binding was “no binding”.
